Assay results reported in patent US20110034670A1 (BOARD OF GOVERNORS FOR HIGHER EDUCATION STATE OF RHODE …, published 2011).
*1 amine or outer side, *2 acyl side, *3 side chain or, on linkers, in order; H or OH if unused. Where no end group is shown, it is not given here. [ ]: non-standard residue; d: D form. Phe(4-NHSO2CH3) = 4-(methylsulfonamido)phenylalanine, CS(=O)(=O)Nc1ccc(C[C@H](N[*:1])C(=O)[*:2])cc1; Phe(4-guanidino) = N=C(N)Nc1ccc(C[C@H](N)C(=O)O)cc1; pY = N[C@@H](Cc1ccc(OP(=O)(O)O)cc1)C(=O)O; Phe(4-Cl) = N[C@@H](Cc1ccc(Cl)cc1)C(=O)O; Phe(4-F) = N[C@@H](Cc1ccc(F)cc1)C(=O)O; Phe(4-I) = N[C@@H](Cc1ccc(I)cc1)C(=O)O; Phe(NH2) = aminophenylalanine; Phe(NO2) = nitrophenylalanine; Phe(CN) = cyanophenylalanine; Phe(N3) = azidophenylalanine; βAla = NCCC(=O)O

Target: Src tyrosine kinase
Experiment: cell-based or functional assay

| IC50, inhibitory potency (Src kinase assay, polyE4Y phosphorylation) [µM] | Binder |
| --- | --- |
| 211 | IYKYY [IYKYY (81)] |
| > 100 | Ac-CYK[pY]Y [Ac-CYKpYY (84)] |
| 1 | Ac-CIYK[Phe(NO2)]YF [Ac-CIYKF(NO2)YF (65)] |
| 39 | Ac-CYK[Phe(4-Cl)]Y [Ac-CYKF(4-C1)Y (83)] |
| > 100 | Ac-CIYKY [Ac-CIYKY (82)] |

Second part, the binder before the results:

| Binder | IC50, inhibitory potency (Src kinase assay, polyE4Y phosphorylation) [µM] |
| --- | --- |
| Ac-CI[Phe(NO2)]KY[Phe(NO2)] [Ac-CIF(NO2)KYF(NO2) (71)] | 3.4 |
| Ac-CI[Phe(NO2)]K[Phe(NO2)]Y [Ac-CIF(NO2)KF(NO2)Y (69)] | 1.4 |
| Ac-CIYK[Phe(NO2)][Phe(NO2)] [Ac-CIYKF(NO2)F(NO2) (70)] | 5.6 |

Target: Src tyrosine kinase
Experiment: cell-based or functional assay
Remark: another data set of the same source

| IC50, inhibitory potency (Src kinase assay, polyE4Y phosphorylation) [µM] | Binder |
| --- | --- |
| 10.8 | Ac-CIYKY[Phe(NO2)] [Ac-CIYKYF(NO2) (66)] |
| > 700 | Ac-CIYKFY [Ac-CIYKFY (61)] |
| 0.53 | Ac-CIYK[Phe(NO2)]Y [Ac-CIYKF(NO2)Y (62)] |
| 3 | CIYK[Phe(NO2)]Y [CIYKF(NO2)Y (77)] |
| > 700 | Ac-CIYKY[Phe(NH2)] [Ac-CIYKYF(NH2) (68)] |
| > 100 | YIYGSFK [YIYGSFK (85)] |
| > 100 | YI[Phe(NO2)]GSFK [YIF(NO2)GSFK (86)] |
| > 100 | Ac-YI[Phe(NO2)]GSFK [Ac-YIF(NO2)GSFK (87)] |

Further lines, the binder ahead of its results:

| Binder | IC50, inhibitory potency (Src kinase assay, polyE4Y phosphorylation) [µM] |
| --- | --- |
| Ac-CI[Phe(NH2)]KYY [Ac-CIF(NH2)KYY (67)] | 760 |
| Ac-CIYK[Phe(NH2)]Y [Ac-CIYKF(NH2)Y (63)] | 93 |
| Ac-CIYK[Phe(CN)]Y [Ac-CIYKF(CN)Y (78)] | 6 |
| Ac-CI[Phe(NO2)]KYY [Ac-CIF(NO2)KYY (64)] | 1.5 |
| Ac-CIYK[Phe(4-I)]Y [Ac-CIYKF(4-I)Y (76)] | 0.78 |
| Ac-CIYK[Phe(N3)]Y [Ac-CIYKF(N3)Y (79)] | 2 |
| Ac-CIYK[Phe(4-Cl)]Y [Ac-CIYKF(4-C1)Y (75)] | 7.3 |
| Ac-CIYK[Phe(4-NHSO2CH3)]Y [Ac-CIYKF(4-NHSO2CH3)Y (80)] | > 100 |
| Ac-CIYK[Phe(4-guanidino)]Y [Ac-CIYKF(4-Guanidine)Y (73)] | > 700 |
| Ac-CIYK[Phe(4-F)]Y [Ac-CIYKF(4-F)Y (74)] | 26 |

Target: Src tyrosine kinase
Experiment: cell-based or functional assay
Remark: another data set of the same source

| fold reduction of inhibitory activity compared to 42 [fold] | fold higher inhibitory potency versus 40 [fold] | IC50, inhibition of polyE4Y phosphorylation (radioactive kinase assay) [µM] | fold reduction of inhibitory potency compared to 43 [fold] | fold reduction of inhibitory potency compared to 42 [fold] | IC50, inhibition of polyE4Y phosphorylation by active Src [µM] | Binder |
| --- | --- | --- | --- | --- | --- | --- |
| – | ~750 | – | – | – | – | Ac-CIYK[Phe(NO2)]Y [Ac-CIYKF(NO2)Y (62)] |
| – | – | 570 | – | – | – | Ac-YIYGSFK [Ac-YIYGSFK (41)] |

Second part, the binder before the results:

| Binder | fold reduction of inhibitory activity compared to 42 [fold] | fold higher inhibitory potency versus 40 [fold] | IC50, inhibition of polyE4Y phosphorylation (radioactive kinase assay) [µM] | fold reduction of inhibitory potency compared to 43 [fold] | fold reduction of inhibitory potency compared to 42 [fold] | IC50, inhibition of polyE4Y phosphorylation by active Src [µM] |
| --- | --- | --- | --- | --- | --- | --- |
| Cys-Ile-Tyr (not fully specified (N-terminus); also: short linker to N-terminus) [3-phenylpyrazolopyrimidine-peptide conjugate 45] | ~145 | – | – | – | – | – |
| YIYGSFK(3‑phenylpyrazolopyrimidine) [3-phenylpyrazolopyrimidine-peptide conjugate 53] | – | – | – | 11 | – | – |
| {3‑phenylpyrazolopyrimidine}-GCIYKYY [3-phenylpyrazolopyrimidine-peptide conjugate 54] | – | – | – | – | 21 | – |
| YIYGSFK (not fully specified (N-terminus); also: short linker between the label and the N-terminus not given here) [3-phenylpyrazolopyrimidine-peptide conjugate 43 (3-phenylpyrazolopyrimidine-YIYGSFK)] | – | – | – | – | – | 2.7 |

Target: Src tyrosine kinase
Experiment: steady-state kinetics, radioactive kinase assay; ATP-binding site of Src

| Ki [µM] | Binder |
| --- | --- |
| 1.7 | {ATP}-[βAla][pY]EEI-OH (also called compound 1; ATP-phosphopeptide conjugate 1) [ATP-βAla-pTyr-Glu-Glu-Ile-OH (1)] |
